Numbered stars: 1 amine (or outer) side, 2 acyl side, 3 side chain; on linkers, the order of the positions; unused ones are H or OH. Square brackets hold non-standard residues; d marks the D form. Side chains are listed from the residue outwards. Ends that are not written are not given here. * marks the point of attachment. C20 diacid = O=C(O)CCCCCCCCCCCCCCCCCCC(=O)*; γGlu = O=C(O)[C@H](CCC(=O)[*:2])N[*:1]; AEEA = NCCOCCOCC(=O)O; Aib = CC(C)(N)C(=O)O
What was measured:
[1] = molecular target: human GLP-1 receptor (hGLP1R) (human, UniProt P43220 24-463); test: cell-based or functional assay
[2] = molecular target: human secretin receptor (hSCTR) (human, UniProt P47872 23-440); test: cell-based or functional assay
human secretin receptor (hSCTR), sequence (P47872 23-440): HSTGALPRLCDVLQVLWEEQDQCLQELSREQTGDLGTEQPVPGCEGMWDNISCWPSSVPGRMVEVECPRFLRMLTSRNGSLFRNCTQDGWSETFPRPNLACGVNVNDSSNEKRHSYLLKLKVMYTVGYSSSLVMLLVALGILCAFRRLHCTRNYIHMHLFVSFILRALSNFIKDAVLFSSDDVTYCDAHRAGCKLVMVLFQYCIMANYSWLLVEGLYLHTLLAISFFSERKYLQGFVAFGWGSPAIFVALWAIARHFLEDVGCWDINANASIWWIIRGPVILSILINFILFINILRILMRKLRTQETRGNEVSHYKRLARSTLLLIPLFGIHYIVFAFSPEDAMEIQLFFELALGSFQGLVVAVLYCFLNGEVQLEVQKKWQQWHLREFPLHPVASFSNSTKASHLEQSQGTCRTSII

Binder | pEC50 hGLPR1 [1] | pEC50 hSCTR [2]
H[Aib]EGTFTSDVSTLK([AEEA-AEEA-γGlu-C20 diacid])EFAAQQRFLEHLV-NH2 (also: K14 lipid also given as C18DA[γE][OEG][OEG]-) [SEQ ID NO: 100] | 9.9 -log M | 6.1 -log M
H[Aib]EGTFTSDVSELKELAAQQRFLEHLV-NH2 (not fully specified (residue 14)) [SEQ ID NO: 99] | 10.8 -log M | 6.1 -log M
H[Aib]EGTFTSDVSYLKEEAAEQRFLEHLV-NH2 (not fully specified (residue 14)) [SEQ ID NO: 95] | 10.7 -log M | 4.8 -log M
H[Aib]EGTFTSDVSELKEEAA[Aib]QRFLEHLV-NH2 (not fully specified (residue 14)) [SEQ ID NO: 97] | 11 -log M | 5.8 -log M
H[Aib]EGTFTSD[Aib]S[Aib]LLEGAALQRFIQWLV-NH2 (N-terminus assumed; SMILES CC[C@H](C)[C@H](NC(=O)[C@H](Cc1ccccc1)NC(=O)[C@H](CCCNC(=N)N)NC(=O)[C@H](CCC(N)=O)NC(=O)[C@H](CC(C)C)NC(=O)[C@H](C)NC(=O)[C@H](C)NC(=O)CNC(=O)[C@H](CCC(=O)O)NC(=O)[C@H](CC(C)C)NC(=O)[C@H](CC(C)C)NC(=O)C(C)(C)NC(=O)[C@H](CO)NC(=O)C(C)(C)NC(=O)[C@H](CC(=O)O)NC(=O)[C@H](CO)NC(=O)[C@@H](NC(=O)[C@H](Cc1ccccc1)NC(=O)[C@@H](NC(=O)CNC(=O)[C@H](CCC(=O)O)NC(=O)C(C)(C)NC(=O)[C@@H](N)Cc1c[nH]cn1)[C@@H](C)O)[C@@H](C)O)C(=O)N[C@@H](CCC(N)=O)C(=O)N[C@@H](Cc1c[nH]c2ccccc12)C(=O)N[C@@H](CC(C)C)C(=O)N[C@H](C(N)=O)C(C)C) [SEQ ID NO: 107] | 9.8 -log M | 6 -log M
H[Aib]EGTFTSD[Aib]SYLK([AEEA-AEEA-γGlu-C20 diacid])EEA[Aib]LQRFLEHLV-NH2 (also: K14 lipid also given as C18DA[γE][OEG][OEG]-) [SEQ ID NO: 103] | 11.1 -log M | 5 -log M
H[Aib]EGTFTSD[Aib]SWLLEGAALQRFIQWLV-NH2 (N-terminus assumed; SMILES CC[C@H](C)[C@H](NC(=O)[C@H](Cc1ccccc1)NC(=O)[C@H](CCCNC(=N)N)NC(=O)[C@H](CCC(N)=O)NC(=O)[C@H](CC(C)C)NC(=O)[C@H](C)NC(=O)[C@H](C)NC(=O)CNC(=O)[C@H](CCC(=O)O)NC(=O)[C@H](CC(C)C)NC(=O)[C@H](CC(C)C)NC(=O)[C@H](Cc1c[nH]c2ccccc12)NC(=O)[C@H](CO)NC(=O)C(C)(C)NC(=O)[C@H](CC(=O)O)NC(=O)[C@H](CO)NC(=O)[C@@H](NC(=O)[C@H](Cc1ccccc1)NC(=O)[C@@H](NC(=O)CNC(=O)[C@H](CCC(=O)O)NC(=O)C(C)(C)NC(=O)[C@@H](N)Cc1c[nH]cn1)[C@@H](C)O)[C@@H](C)O)C(=O)N[C@@H](CCC(N)=O)C(=O)N[C@@H](Cc1c[nH]c2ccccc12)C(=O)N[C@@H](CC(C)C)C(=O)N[C@H](C(N)=O)C(C)C) [SEQ ID NO: 108] | 10.1 -log M | 5.9 -log M
H[Aib]EGTFTSDVSVLK([AEEA-AEEA-γGlu-C20 diacid])ETAA[Aib]QRFLEHLV-NH2 (also: K14 lipid also given as C18DA[γE][OEG][OEG]-) [SEQ ID NO: 101] | 9.7 -log M | 6 -log M
H[Aib]EGTFTSD[Aib]SYLLEGAALQRFIQWLV-NH2 (N-terminus assumed; SMILES CC[C@H](C)[C@H](NC(=O)[C@H](Cc1ccccc1)NC(=O)[C@H](CCCNC(=N)N)NC(=O)[C@H](CCC(N)=O)NC(=O)[C@H](CC(C)C)NC(=O)[C@H](C)NC(=O)[C@H](C)NC(=O)CNC(=O)[C@H](CCC(=O)O)NC(=O)[C@H](CC(C)C)NC(=O)[C@H](CC(C)C)NC(=O)[C@H](Cc1ccc(O)cc1)NC(=O)[C@H](CO)NC(=O)C(C)(C)NC(=O)[C@H](CC(=O)O)NC(=O)[C@H](CO)NC(=O)[C@@H](NC(=O)[C@H](Cc1ccccc1)NC(=O)[C@@H](NC(=O)CNC(=O)[C@H](CCC(=O)O)NC(=O)C(C)(C)NC(=O)[C@@H](N)Cc1c[nH]cn1)[C@@H](C)O)[C@@H](C)O)C(=O)N[C@@H](CCC(N)=O)C(=O)N[C@@H](Cc1c[nH]c2ccccc12)C(=O)N[C@@H](CC(C)C)C(=O)N[C@H](C(N)=O)C(C)C) [SEQ ID NO: 106] | 10.8 -log M | 5.8 -log M
H[Aib]EGTFTSDVSTLKEEAAAQRFLEHLV-NH2 (not fully specified (residue 14)) [SEQ ID NO: 96] | 10.9 -log M | 6.4 -log M
H[Aib]EGTFTSD[Aib]SRLLEGAALQRFIQWLV-NH2 (N-terminus assumed; SMILES CC[C@H](C)[C@H](NC(=O)[C@H](Cc1ccccc1)NC(=O)[C@H](CCCNC(=N)N)NC(=O)[C@H](CCC(N)=O)NC(=O)[C@H](CC(C)C)NC(=O)[C@H](C)NC(=O)[C@H](C)NC(=O)CNC(=O)[C@H](CCC(=O)O)NC(=O)[C@H](CC(C)C)NC(=O)[C@H](CC(C)C)NC(=O)[C@H](CCCNC(=N)N)NC(=O)[C@H](CO)NC(=O)C(C)(C)NC(=O)[C@H](CC(=O)O)NC(=O)[C@H](CO)NC(=O)[C@@H](NC(=O)[C@H](Cc1ccccc1)NC(=O)[C@@H](NC(=O)CNC(=O)[C@H](CCC(=O)O)NC(=O)C(C)(C)NC(=O)[C@@H](N)Cc1c[nH]cn1)[C@@H](C)O)[C@@H](C)O)C(=O)N[C@@H](CCC(N)=O)C(=O)N[C@@H](Cc1c[nH]c2ccccc12)C(=O)N[C@@H](CC(C)C)C(=O)N[C@H](C(N)=O)C(C)C) [SEQ ID NO: 104] | 9.9 -log M | 6.5 -log M
H[Aib]EGTFTSD[Aib]SELLEGAALQRFIQWLV-NH2 (N-terminus assumed; SMILES CC[C@H](C)[C@H](NC(=O)[C@H](Cc1ccccc1)NC(=O)[C@H](CCCNC(=N)N)NC(=O)[C@H](CCC(N)=O)NC(=O)[C@H](CC(C)C)NC(=O)[C@H](C)NC(=O)[C@H](C)NC(=O)CNC(=O)[C@H](CCC(=O)O)NC(=O)[C@H](CC(C)C)NC(=O)[C@H](CC(C)C)NC(=O)[C@H](CCC(=O)O)NC(=O)[C@H](CO)NC(=O)C(C)(C)NC(=O)[C@H](CC(=O)O)NC(=O)[C@H](CO)NC(=O)[C@@H](NC(=O)[C@H](Cc1ccccc1)NC(=O)[C@@H](NC(=O)CNC(=O)[C@H](CCC(=O)O)NC(=O)C(C)(C)NC(=O)[C@@H](N)Cc1c[nH]cn1)[C@@H](C)O)[C@@H](C)O)C(=O)N[C@@H](CCC(N)=O)C(=O)N[C@@H](Cc1c[nH]c2ccccc12)C(=O)N[C@@H](CC(C)C)C(=O)N[C@H](C(N)=O)C(C)C) [SEQ ID NO: 109] | 10.1 -log M | 5.5 -log M
H[Aib]EGTFTSDVSELKEEAAAQRFLEHLV-NH2 (not fully specified (residue 14)) [SEQ ID NO: 98] | 10.6 -log M | 5.9 -log M
H[Aib]EGTFTSD[Aib]SGLLEGAALQRFIQWLV-NH2 (N-terminus assumed; SMILES CC[C@H](C)[C@H](NC(=O)[C@H](Cc1ccccc1)NC(=O)[C@H](CCCNC(=N)N)NC(=O)[C@H](CCC(N)=O)NC(=O)[C@H](CC(C)C)NC(=O)[C@H](C)NC(=O)[C@H](C)NC(=O)CNC(=O)[C@H](CCC(=O)O)NC(=O)[C@H](CC(C)C)NC(=O)[C@H](CC(C)C)NC(=O)CNC(=O)[C@H](CO)NC(=O)C(C)(C)NC(=O)[C@H](CC(=O)O)NC(=O)[C@H](CO)NC(=O)[C@@H](NC(=O)[C@H](Cc1ccccc1)NC(=O)[C@@H](NC(=O)CNC(=O)[C@H](CCC(=O)O)NC(=O)C(C)(C)NC(=O)[C@@H](N)Cc1c[nH]cn1)[C@@H](C)O)[C@@H](C)O)C(=O)N[C@@H](CCC(N)=O)C(=O)N[C@@H](Cc1c[nH]c2ccccc12)C(=O)N[C@@H](CC(C)C)C(=O)N[C@H](C(N)=O)C(C)C) [SEQ ID NO: 105] | 10 -log M | 5.8 -log M
H[Aib]EGTFTSDVSTLK([AEEA-AEEA-γGlu-C20 diacid])ELAAAQRFLEHLV-NH2 (also: K14 lipidated with C20DA[γE][OEG][OEG]- or C18DA[γE][OEG][OEG]-) [SEQ ID NO: 11] | 10.3 -log M | 6.2 -log M
H[Aib]EGTFTSDVSTLK([AEEA-AEEA-γGlu-C20 diacid])EEAATQRFLEHLV-NH2 (also: K14 lipid also given as C18DA[γE][OEG][OEG]-) [SEQ ID NO: 102] | 11 -log M | 7.1 -log M
H[Aib]EGTFTSDVSRLK([AEEA-AEEA-γGlu-C20 diacid])ELAA[Aib]QRFLEHLV-NH2 (also: K14 lipid also given as C18DA[γE][OEG][OEG]-) [SEQ ID NO: 10] | 9.7 -log M | 6.3 -log M
